Values of other authors as cited in patent publication US20060198900A1, “Bioactive Agent Compositions for Repair of Cell Injuries” (Nutritional Bioscience Limited, priority 2004, published 2006).

Tested on: gastric damage
Conditions: Playford et al. 1995

B1: hSP: recombinant human spasmolytic polyptide (hSP) (protein, UniProt Q03403 24-129, looked up)
Trefoil factor 2: EKPSPCQCSRLSPHNRTNCGFPGITSDQCFDNGCCFDSSVTGVPWCFHPLPKQESDQCVMEVSDRRNCGYPGISPEECASRKCCFSNFIFEVPWCFFPKSVEDCHY
reduction of gastric damage: 50%
